Test results as given in patent US20130078234A1 (Daiichi Sankyo, published 2013).

T1: extracellular domain polypeptide of a recombinant B7-H3 variant 2 antigen (R&D Systems, Inc., #2318-B3-050/CF) (human, UniProt Q5ZPR3 29-466)
T1 construct: Bought recombinant protein; also called recombinant B7-H3 antigen; B7-H3 antigen
T1 sequence: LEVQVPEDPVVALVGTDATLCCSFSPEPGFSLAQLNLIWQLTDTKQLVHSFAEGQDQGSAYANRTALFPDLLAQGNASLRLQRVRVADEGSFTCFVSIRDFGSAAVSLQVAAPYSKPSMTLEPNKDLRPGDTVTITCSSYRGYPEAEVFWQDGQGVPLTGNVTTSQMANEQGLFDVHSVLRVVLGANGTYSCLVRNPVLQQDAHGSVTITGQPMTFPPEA


Columns and labels:
[1] = target: T1, extracellular domain polypeptide of a …; test: SPR (Biacore), antibody captured on anti-human IgG, B7-H3 variant 2 extracellular domain as analyte
Procedure: (§1) The binding property of the humanized M30 antibody to human B7-H3 which is an antigen was measured by a surface plasmon resonance (SPR) device (Biacore, Inc.). According to a common procedure, an anti-human IgG antibody was immobilized on a sensor chip, and then, each of the purified samples of the humanized M30 antibodies obtained in the above 10)-4 was bound thereto. Thereafter, an extracellular domain polypeptide of the B7-H3 variant 2 antigen (manufactured by R&D Systems, Inc., #2318-B3-050/CF) was added thereto at different concentrations, and the amount of the antigen bound to the antibody in a running buffer (phosphate buffer, 0.05% SP20) was measured over time. The measured amount was analyzed with a dedicated software (BIAevaluation) and a dissociation constant (Kd [M]) was calculated. The measurement was performed using the cM30 antibody as a positive control for each measurement operation.

[2] = target: T1, extracellular domain polypeptide of a …; test: competition ELISA on plate-coated B7-H3 variant 2 extracellular domain polypeptide; competitor biotinylated M30 (bM30, 5 ug/ml), detected with streptavidin-HRP, OD 450 nm
Procedure: Each of the extracellular domain polypeptide of the B7-H3 variant 1 (manufactured by R&D Systems, Inc., #1949-B3-050/CF) and the extracellular domain polypeptide of the B7-H3 variant (manufactured by R&D Systems, Inc., #2318-B3-050/CF) was diluted to 0.5 μg/ml with a coating buffer and the resulting solution was dispensed at 100 μL/well in an immunoplate (manufactured by Nunc, Inc., #442404). Then, the plate was left to stand overnight at 4° C., whereby the protein was adsorbed to the plate. On the next day, an assay diluent was dispensed at 200 μL/well, and the plate was left to stand at room temperature for 4 hours.

[3] = target: T1, extracellular domain polypeptide of a …; test: SPR (Biacore), antibody captured on anti-human IgG, B7-H3 variant 2 extracellular domain as analyte; positive control
Procedure: as §1

[4] = target: T1, extracellular domain polypeptide of a …; test: SPR, antibody captured on immobilized anti-human IgG, B7-H3 variant 2 extracellular domain as analyte; cM30 chimeric antibody, captured on anti-human IgG; experiment 8)-1
Procedure: The affinity between the M30 antibody or the cM30 antibody and the B7-H3 antigen was measured by a surface plasmon resonance (SPR) device (GE Healthcare Corporation). According to a common procedure, an anti-mouse IgG or an anti-human IgG antibody was immobilized on a sensor chip, and then, the M30 antibody sample or the cM30 antibody was bound thereto. Thereafter, an extracellular domain polypeptide of a recombinant B7-H3 variant 2 antigen (manufactured by R&D Systems, Inc., #2318-B3-050/CF) was added thereto at different concentrations, and the amount of the antigen bound to the antibody in a running buffer (phosphate buffer, 0.05% SP20) was measured over time. The measured amount was analyzed with a dedicated software (BIAevaluation Version 4.1, GE Healthcare Corporation) and a dissociation constant was calculated.

Binder	Kd [1] [nM]	other results
humanized M30 antibody M30-H1-L1 (antibody, human IgG1, kappa, V domains shown, Human IgG1/kappa) VH: QVQLVQSGAEVKKPGSSVKVSCKASGYTFTNYVMHWVRQAPGQGLEWMGYINPYNDDVKYNEKFKGRVTITADESTSTAYMELSSLRSEDTAVYYCARWGYYGSPLYYFDYWGQGTLVTVSS VL: EIVLTQSPATLSLSPGERATLSCRASSRLIYMHWYQQKPGQAPRLLIYATSNLASGIPARFSGSGSGTDFTLTISRLEPEDFAVYYCQQWNSNPPTFGQGTKVEIKR	87	–
humanized M30 antibody M30-H4-L3 (antibody, human IgG1, kappa, V domains shown, Human IgG1/kappa) VH: EVQLVQSGAEVKKPGSSVKVSCKASGYTFTNYVMHWVKQAPGQGLEWIGYINPYNDDVKYNEKFKGKATQTSDKSTSTAYMELSSLRSEDTAVYYCARWGYYGSPLYYFDYWGQGTLVTVSS VL: QIVLSQSPATLSLSPGERATLTCRASSRLIYMHWYQQKPGSAPKLWIYATSNLASGIPARFSGSGSGTSYTLTISRLEPEDFAVYYCQQWNSNPPTFGQGTKVEIKR	160	–
humanized M30 antibody M30-H1-L6 (antibody, human IgG1, kappa, V domains shown, Human IgG1/kappa) VH: QVQLVQSGAEVKKPGSSVKVSCKASGYTFTNYVMHWVRQAPGQGLEWMGYINPYNDDVKYNEKFKGRVTITADESTSTAYMELSSLRSEDTAVYYCARWGYYGSPLYYFDYWGQGTLVTVSS VL: EIVLTQSPATLSLSPGERATLSCRASSRLIYMHWYQQKPGQAPRPLIYATSNLASGIPARFSGSGSGTDFTLTISRLEPEDFAVYYCQQWNSNPPTFGQGTKVEIKR	3.4	–
humanized M30 antibody M30-H4-L2 (antibody, human IgG1, kappa, V domains shown, Human IgG1/kappa) VH: EVQLVQSGAEVKKPGSSVKVSCKASGYTFTNYVMHWVKQAPGQGLEWIGYINPYNDDVKYNEKFKGKATQTSDKSTSTAYMELSSLRSEDTAVYYCARWGYYGSPLYYFDYWGQGTLVTVSS VL: EIVLTQSPATLSLSPGERATLSCRASSRLIYMHWYQQKPGQAPRLWIYATSNLASGIPARFSGSGSGTDYTLTISRLEPEDFAVYYCQQWNSNPPTFGQGTKVEIKR	140	–
humanized M30 antibody M30-H4-L4 (antibody, human IgG1, kappa, V domains shown, Human IgG1/kappa) VH: EVQLVQSGAEVKKPGSSVKVSCKASGYTFTNYVMHWVKQAPGQGLEWIGYINPYNDDVKYNEKFKGKATQTSDKSTSTAYMELSSLRSEDTAVYYCARWGYYGSPLYYFDYWGQGTLVTVSS VL: EIVLTQSPATLSLSPGERATLSCRASSRLIYMHWYQQKPGQAPRPLIYATSNLASGIPARFSGSGSGTDFTLTISSLEPEDFAVYYCQQWNSNPPTFGQGTKVEIKR	12	–
humanized M30 antibody M30-H1-L5 (antibody, human IgG1, kappa, V domains shown, Human IgG1/kappa) VH: QVQLVQSGAEVKKPGSSVKVSCKASGYTFTNYVMHWVRQAPGQGLEWMGYINPYNDDVKYNEKFKGRVTITADESTSTAYMELSSLRSEDTAVYYCARWGYYGSPLYYFDYWGQGTLVTVSS VL: QIVLSQSPATLSLSPGERATLTCRASSRLIYMHWYQQKPGSAPKPWIYATSNLASGIPARFSGSGSGTSYTLTISRLEPEDFAVYYCQQWNSNPPTFGQGTKVEIKR	1.9	–
chimeric antibody M30 (antibody, human IgG1, kappa, Mouse M30 variable regions on human IgG1 / human kappa constant regions; also called cM30; cM30 antibody) heavy: not shown light: QIVLSQSPTILSASPGEKVTMTCRASSRLIYMHWYQQKPGSSPKPWIYATSNLASGVPARFSGSGSGTSYSLTISRVEAEDAATYYCQQWNSNPPTFGTGTKLELKRTVAAPSVFIFPPSDEQLKSGTASVVCLLNNFYPREAKVQWKVDNALQSGNSQESVTEQDSKDSTYSLSSTLTLSKADYEKHKVYACEVTHQGLSSPVTKSFNRGEC	–	Kd [3]: 0.73 nM; Kd [4]: 3.43 nM; IC50 (read off the curve) [2]: ~0.4 µg/mL

The next lines start with results.

Kd [1] [nM]	Binder	other results
16	humanized M30 antibody M30-H1-L4 (antibody, human IgG1, kappa, V domains shown, Human IgG1/kappa; also called M30-H1-L4 antibody) VH: QVQLVQSGAEVKKPGSSVKVSCKASGYTFTNYVMHWVRQAPGQGLEWMGYINPYNDDVKYNEKFKGRVTITADESTSTAYMELSSLRSEDTAVYYCARWGYYGSPLYYFDYWGQGTLVTVSS VL: EIVLTQSPATLSLSPGERATLSCRASSRLIYMHWYQQKPGQAPRPLIYATSNLASGIPARFSGSGSGTDFTLTISSLEPEDFAVYYCQQWNSNPPTFGQGTKVEIKR	IC50 (read off the curve) [2]: ~0.5 µg/mL
100	humanized M30 antibody M30-H1-L3 (antibody, human IgG1, kappa, V domains shown, Human IgG1/kappa) VH: QVQLVQSGAEVKKPGSSVKVSCKASGYTFTNYVMHWVRQAPGQGLEWMGYINPYNDDVKYNEKFKGRVTITADESTSTAYMELSSLRSEDTAVYYCARWGYYGSPLYYFDYWGQGTLVTVSS VL: QIVLSQSPATLSLSPGERATLTCRASSRLIYMHWYQQKPGSAPKLWIYATSNLASGIPARFSGSGSGTSYTLTISRLEPEDFAVYYCQQWNSNPPTFGQGTKVEIKR	–
130	humanized M30 antibody M30-H4-L1 (antibody, human IgG1, kappa, V domains shown, Human IgG1/kappa) VH: EVQLVQSGAEVKKPGSSVKVSCKASGYTFTNYVMHWVKQAPGQGLEWIGYINPYNDDVKYNEKFKGKATQTSDKSTSTAYMELSSLRSEDTAVYYCARWGYYGSPLYYFDYWGQGTLVTVSS VL: EIVLTQSPATLSLSPGERATLSCRASSRLIYMHWYQQKPGQAPRLLIYATSNLASGIPARFSGSGSGTDFTLTISRLEPEDFAVYYCQQWNSNPPTFGQGTKVEIKR	–
100	humanized M30 antibody M30-H1-L2 (antibody, human IgG1, kappa, V domains shown, Human IgG1/kappa) VH: QVQLVQSGAEVKKPGSSVKVSCKASGYTFTNYVMHWVRQAPGQGLEWMGYINPYNDDVKYNEKFKGRVTITADESTSTAYMELSSLRSEDTAVYYCARWGYYGSPLYYFDYWGQGTLVTVSS VL: EIVLTQSPATLSLSPGERATLSCRASSRLIYMHWYQQKPGQAPRLWIYATSNLASGIPARFSGSGSGTDYTLTISRLEPEDFAVYYCQQWNSNPPTFGQGTKVEIKR	–
2.7	humanized M30 antibody M30-H1-L7 (antibody, human IgG1, kappa, V domains shown, Human IgG1/kappa) VH: QVQLVQSGAEVKKPGSSVKVSCKASGYTFTNYVMHWVRQAPGQGLEWMGYINPYNDDVKYNEKFKGRVTITADESTSTAYMELSSLRSEDTAVYYCARWGYYGSPLYYFDYWGQGTLVTVSS VL: EIVLTQSPATLSLSPGERATLSCRASSRLIYMHWYQQKPGQAPRPLIYATSNLASGIPARFSGSGSGTDYTLTISRLEPEDFAVYYCQQWNSNPPTFGQGTKVEIKR	–
